Assay results from US20200385441A1 (TECHNION RESEARCH AND DEVELOPMENT FOUNDATION, published 2020).

Molecular target: T1, human Melanoma-associated Chondroitin Sulfate Proteoglycan (MCSP) (human, UniProt Q6UVK1 30-2322)
T1 construct: whole, on cells; also called CSPG4; NG2
Experiment: flow cytometry on B16F10-MCSP (C25) cells, detected with Strep-PE or fold-specific anti-H-2K antibody

T1 sequence (Q6UVK1 30-2322): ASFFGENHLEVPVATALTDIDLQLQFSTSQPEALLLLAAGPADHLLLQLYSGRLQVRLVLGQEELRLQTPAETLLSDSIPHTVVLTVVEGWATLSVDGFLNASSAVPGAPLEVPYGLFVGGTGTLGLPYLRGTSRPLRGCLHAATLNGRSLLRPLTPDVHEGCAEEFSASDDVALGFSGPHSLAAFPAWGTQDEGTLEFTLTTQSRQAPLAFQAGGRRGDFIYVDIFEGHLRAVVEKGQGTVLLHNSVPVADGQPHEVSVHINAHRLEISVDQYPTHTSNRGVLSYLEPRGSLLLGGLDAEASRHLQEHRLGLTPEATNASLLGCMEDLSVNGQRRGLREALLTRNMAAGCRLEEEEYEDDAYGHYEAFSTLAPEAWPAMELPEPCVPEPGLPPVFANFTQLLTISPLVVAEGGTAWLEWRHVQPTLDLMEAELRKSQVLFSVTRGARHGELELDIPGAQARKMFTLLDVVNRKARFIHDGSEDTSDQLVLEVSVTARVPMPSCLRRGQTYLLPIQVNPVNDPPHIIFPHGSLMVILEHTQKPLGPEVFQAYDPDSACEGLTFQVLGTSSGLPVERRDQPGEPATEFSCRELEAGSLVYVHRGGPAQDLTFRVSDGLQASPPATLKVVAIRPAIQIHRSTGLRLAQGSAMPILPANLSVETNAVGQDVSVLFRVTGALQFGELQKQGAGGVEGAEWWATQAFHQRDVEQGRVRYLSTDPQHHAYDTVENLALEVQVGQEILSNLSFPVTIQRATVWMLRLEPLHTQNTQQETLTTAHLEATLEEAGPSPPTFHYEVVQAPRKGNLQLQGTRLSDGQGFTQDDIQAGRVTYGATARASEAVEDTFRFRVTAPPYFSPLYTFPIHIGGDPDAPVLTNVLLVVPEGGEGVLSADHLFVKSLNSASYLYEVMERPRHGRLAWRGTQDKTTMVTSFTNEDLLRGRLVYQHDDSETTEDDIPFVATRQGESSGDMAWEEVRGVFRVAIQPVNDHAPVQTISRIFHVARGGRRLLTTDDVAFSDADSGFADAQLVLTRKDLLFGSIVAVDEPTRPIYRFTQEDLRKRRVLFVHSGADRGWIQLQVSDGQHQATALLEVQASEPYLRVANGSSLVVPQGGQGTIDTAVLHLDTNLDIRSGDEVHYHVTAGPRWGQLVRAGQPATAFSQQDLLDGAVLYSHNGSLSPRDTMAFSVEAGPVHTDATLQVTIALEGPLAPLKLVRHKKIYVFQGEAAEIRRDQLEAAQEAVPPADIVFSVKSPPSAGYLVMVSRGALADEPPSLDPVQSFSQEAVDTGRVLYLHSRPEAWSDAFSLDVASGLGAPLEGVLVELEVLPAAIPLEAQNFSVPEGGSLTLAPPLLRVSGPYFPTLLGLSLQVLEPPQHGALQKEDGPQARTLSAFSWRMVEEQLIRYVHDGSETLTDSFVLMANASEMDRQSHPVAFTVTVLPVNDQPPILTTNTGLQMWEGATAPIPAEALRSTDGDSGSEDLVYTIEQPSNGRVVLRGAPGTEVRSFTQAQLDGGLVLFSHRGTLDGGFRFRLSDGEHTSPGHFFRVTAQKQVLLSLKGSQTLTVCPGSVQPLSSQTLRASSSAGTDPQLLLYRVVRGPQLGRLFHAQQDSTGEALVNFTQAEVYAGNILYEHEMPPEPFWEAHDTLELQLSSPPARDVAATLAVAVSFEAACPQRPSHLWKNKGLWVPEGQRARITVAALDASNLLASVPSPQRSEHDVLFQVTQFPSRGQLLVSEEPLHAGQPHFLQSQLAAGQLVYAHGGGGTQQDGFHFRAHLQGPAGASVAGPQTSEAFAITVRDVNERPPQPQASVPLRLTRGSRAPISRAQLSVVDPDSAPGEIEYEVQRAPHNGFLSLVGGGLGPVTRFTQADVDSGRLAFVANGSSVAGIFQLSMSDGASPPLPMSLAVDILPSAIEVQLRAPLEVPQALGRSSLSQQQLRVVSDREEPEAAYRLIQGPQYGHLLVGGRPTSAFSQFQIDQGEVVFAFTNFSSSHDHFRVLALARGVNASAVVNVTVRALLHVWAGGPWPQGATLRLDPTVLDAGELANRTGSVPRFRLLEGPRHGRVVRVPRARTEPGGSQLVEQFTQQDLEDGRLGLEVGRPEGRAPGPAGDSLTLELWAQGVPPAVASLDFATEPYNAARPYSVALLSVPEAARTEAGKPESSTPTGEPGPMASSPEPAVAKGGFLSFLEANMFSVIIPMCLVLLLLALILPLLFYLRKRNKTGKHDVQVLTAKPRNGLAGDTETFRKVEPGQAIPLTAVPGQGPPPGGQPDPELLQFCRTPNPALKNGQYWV

B1: BA3 biotinylated peptide-H-2Kd-anti-MCSP scFv fusion protein, 20 amino acid β2M-MHC linker (peptide-MHC)
chain: TYQRTRALVGGGGSGGGGSGGGGSIQKTPQIQVYSRHPPENGKPNILNCYVTQFHPPHIEIQMLKNGKKIPKVEMSDMSFSKDWSFYILAHTEFTPTETDTYACRVKHVSMAEPKTVYWDRDMGGGGSGGGGSGGGGSGGGGSGPHSLRYFVTAVSRPGLGEPRFIAVGYVDDTQFVRFDSDADNPRFEPRAPWMEQEGPEYWEEQTQRAKSDEQWFRVSLRTAQRYYNQSKGGSHTFQRMFGCDVGSDWRLLRGYQQFAYDGRDYIALNEDLKTWTAADTAALITRRKWEQAGDAEYYRAYLEGECVEWLRRYLELGNETLLRTDSPKAHVTYHPRSQVDVTLRCWALGFYPADITLTWQLNGEDLTQDMELVETRPAGDGTFQKWAAVVVPLGKEQNYTCHVHHKGLPEPLTLRWKLPPSTASGGQVKLQQSGGGLVQPGGSMKLSCVVSGFTFSNYWMNWVRQSPEKGLEWIAEIRLKSNNFGRYYAESVKGRFTISRDDSKSSAYLQMINLRAEDTGIYYCTSYGNYVGHYFDHWGQGTTVTVSSGGGGSGGGGSGGGGSDIELTQSPKFMSTSVGDRVSVTCKASQNVDTNVAWYQQKPGQSPEPLLFSASYRYTGVPDRFTGSGSGTDFTLTISNVQSEDLAEYFCQQYNSYPLTFGGGTKLEIKRAHHHHHHGLNDIFEAQKIEWH
notes: also called BA-biotin fusion molecule; biotinylated ScFv-MHC molecule
B1: binds.
